Experimental data as given in publication PMC7430637, “Alternative splicing and allosteric regulation modulate the chromatin binding of UHRF1” (Nucleic Acids Research, 2020).
Changes are numbered by the printed parent chain.

Key:
Experiment in all cases: fluorescence polarisation; FAM-labelled H3(1-15) peptide, recombinant protein titrated; RT; as described (ref. 28)
Conditions in all cases: both partners purified
[1] = biological target: T1, mUHRF1 V1 mLinker 2 V1* (P293A/P294A/P295A/L297A/R298A/N299A/T300A/G301A/K302A/S303A), full-length (mouse, UniProt Q8VDF2-1 1-782, P293A | P294A | P295A | L297A | R298A | N299A | T300A | G301A | K302A | S303A)
T1 construct: UHRF1, mouse, splicing variant V1, NCBI NP_001104550.1, with ten alanine substitutions in Linker 2; source: E. coli BL21(DE3) RIL, purified (HisPur Cobalt-Resin)
T1 sequence (looked up): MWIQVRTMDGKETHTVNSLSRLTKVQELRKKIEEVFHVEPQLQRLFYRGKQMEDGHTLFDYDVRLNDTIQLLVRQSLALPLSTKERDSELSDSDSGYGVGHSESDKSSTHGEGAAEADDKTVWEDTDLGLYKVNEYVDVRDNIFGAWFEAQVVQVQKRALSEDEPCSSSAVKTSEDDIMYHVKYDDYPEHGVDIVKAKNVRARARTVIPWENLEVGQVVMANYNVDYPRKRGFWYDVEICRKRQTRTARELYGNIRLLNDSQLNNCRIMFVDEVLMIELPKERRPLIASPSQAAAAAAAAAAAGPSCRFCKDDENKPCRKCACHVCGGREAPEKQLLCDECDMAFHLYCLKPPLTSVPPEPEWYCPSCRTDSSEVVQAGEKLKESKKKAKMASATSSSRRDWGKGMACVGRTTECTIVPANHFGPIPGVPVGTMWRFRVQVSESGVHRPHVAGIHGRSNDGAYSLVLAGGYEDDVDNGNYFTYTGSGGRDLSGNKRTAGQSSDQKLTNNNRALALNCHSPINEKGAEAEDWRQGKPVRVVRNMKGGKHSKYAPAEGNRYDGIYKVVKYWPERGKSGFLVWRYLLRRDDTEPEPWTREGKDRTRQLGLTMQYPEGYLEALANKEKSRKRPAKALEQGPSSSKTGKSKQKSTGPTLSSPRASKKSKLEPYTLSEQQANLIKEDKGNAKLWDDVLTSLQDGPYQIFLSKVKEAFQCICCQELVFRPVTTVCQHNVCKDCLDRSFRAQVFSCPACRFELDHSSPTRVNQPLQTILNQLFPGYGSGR

[2] = biological target: T2, mTTD-PHD V1 R298* (R298A) (mouse, UniProt Q8VDF2-1 122-380, R298A)
T2 construct: UHRF1, mouse, splicing variant V1 (NCBI NP_001104550.1), TTD-Linker 2-PHD, residues 122-380 as told for wild-type mTTD-PHD V1; source: E. coli BL21(DE3) RIL, purified (HisPur Cobalt-Resin)
T2 sequence (looked up): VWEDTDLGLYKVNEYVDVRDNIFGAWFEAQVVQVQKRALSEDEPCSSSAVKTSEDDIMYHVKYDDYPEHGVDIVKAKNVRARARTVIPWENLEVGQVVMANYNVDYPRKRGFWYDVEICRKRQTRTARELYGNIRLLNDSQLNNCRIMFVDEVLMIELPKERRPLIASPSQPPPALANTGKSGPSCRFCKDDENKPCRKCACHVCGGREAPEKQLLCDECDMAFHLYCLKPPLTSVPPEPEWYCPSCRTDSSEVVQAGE

[3] = biological target: T3, mUHRF1 V1 R-S* (R298A/N299A/T300A/G301A/K302A/S303A), full-length (mouse, UniProt Q8VDF2-1 1-782, R298A | N299A | T300A | G301A | K302A | S303A)
T3 construct: UHRF1, mouse, splicing variant V1, NCBI NP_001104550.1, with six alanine substitutions in Linker 2; source: E. coli BL21(DE3) RIL, purified (HisPur Cobalt-Resin)
T3 sequence (looked up): T1 sequence (looked up) with A293P, A294P, A295P, A297L

[4] = biological target: T4, mUHRF1 V1 P-patch/R-S* (P293A/P294A/P295A/R298A/N299A/T300A/G301A/K302A/S303A), full-length (mouse, UniProt Q8VDF2-1 1-782, P293A | P294A | P295A | R298A | N299A | T300A | G301A | K302A | S303A)
T4 construct: UHRF1, mouse, splicing variant V1, NCBI NP_001104550.1, with nine alanine substitutions in Linker 2; source: E. coli BL21(DE3) RIL, purified (HisPur Cobalt-Resin)
T4 sequence (looked up): T1 sequence (looked up) with A297L

[5] = biological target: T5, mTTD-PHD V1 P-patch* (P293A/P294A/P295A) (mouse, UniProt Q8VDF2-1 122-380, P293A | P294A | P295A)
T5 construct: UHRF1, mouse, splicing variant V1 (NCBI NP_001104550.1), TTD-Linker 2-PHD, residues 122-380 as told for wild-type mTTD-PHD V1; source: E. coli BL21(DE3) RIL, purified (HisPur Cobalt-Resin)
T5 sequence (looked up): T2 sequence (looked up) with P172A, P173A, P174A, A177R

B1: FAM-H3(1-15)K9me3 peptide (N-terminally fluorescein-labelled) (peptide)
peptide: ARTKQTARKSTGGKA
modifications: fluorescein (FAM) on the N-terminus; K9 trimethylated
notes: histone H3 aa 1-15; also called FAM-H3K9me3; source: synthetic peptide (Synpeptide Co., Ltd)
Kd [1]: 12.6 ± 0.5 µM | Kd [2]: 5.9 ± 0.5 µM | Kd [3]: 11.1 ± 0.3 µM | Kd [4]: 13.9 ± 0.8 µM | Kd [5]: 10.2 ± 0.3 µM
